“And” between values parts separate entries of the source, which are not always exact repeats. Equal entries are not always repeated. Values belong to the binder of their own block, whether it stands above or below them.
Tests used:
human interleukin-4 [1] = biological target: T1, human interleukin-4 (human, UniProt P05112, radioiodinated (125I, IODOGEN method) in the binding and competition assays; unlabelled in the reporter gene assay); assay: inhibition of 125I-hIL-4 binding to the human IL-4 receptor on Jijoye CJ cells, 4 C
Protocol: The humanized antibodies were assayed for the ability to inhibit the binding of radiolabelled hIL-4 to the recombinant human IL-4 receptor expressed on Jijoye CJ cells in microtiter plates. Briefly, the humanized antibodies were serially diluted in cell growth medium at protein concentrations of from 8.6 nM to 4 pM. Rat antibody 25D2 was similarly diluted and used as a positive control. Jijoye CJ cells (10^5 cells) and 44 pM ^125I-hIL-4 were then added to each well (200 μl final volume per well) and the plates were incubated for 2 hours at 4° C.
Humanized antibodies h25D2-1 and h25D2-4 antibodies were assayed as described above for the ability to inhibit binding of radiolabeled hIL-4 to recombinant hIL-4 receptors expressed on the Jijoye CJ cell line.

human interleukin-4 [2] = biological target: T1, human interleukin-4
human interleukin-4 [3] = biological target: T1, human interleukin-4; remark: listed apart in the source
human interleukin-4 [4] = biological target: T1, human interleukin-4; assay: plate competition assay at room temperature; free antibody against immobilized 25D2 as competitor for 125I-hIL-4
Protocol: (§1) Immunosorb plates were coated with a 60 ng/ml solution of the rat 25D2 antibody diluted in PBS (100 μl/well) for at least 16 hours at 4° C. The wells were then blocked with Blocking buffer (3% BSA in PBS) for 4 hours at room temperature. Fifty microliters of 2-fold serially diluted competing antibodies plus the appropriate amount of ^125I-hIL-4 ([…] total volume) were added to each well, and the plates were incubated at room temperature for 16–24 hours. The plates were washed 3 times with potassium phosphate, pH 7.4, plus 0.05% Tween 20. The wells were aspirated dry, and 75 μl of Solubilization buffer (0.1N NaOH/1% SDS) was added to each well and incubated for 30 minutes at room temperature. The solution was removed from each well and counted in an LKB gamma counter.
To further characterize humanized antibody variants h25D2-1 and h25D2-4, competitive binding assays with the humanized antibodies and rat antibody 25D2 were performed as described above.

human interleukin-4 [5] = biological target: T1, human interleukin-4; assay: plate competition assay at room temperature (about 22 C); free antibody against immobilized 25D2 as competitor for 125I-hIL-4
Protocol: as §1
A plate competition assay was carried out as described above using ^125I-hIL-4, immobilized rat antibody 25D2, and varying levels of free antibodies 25D2, h25D2-1 or h25D2-9.

human interleukin-4 [6] = biological target: T1, human interleukin-4; assay: apparent Kd, Scatchard analysis; antibody from COS conditioned medium captured on anti-human IgG4 Fc plates, 125I-hIL-4, room temperature
Protocol: The wells were washed and incubated with ^125I-hIL-4 at concentrations between 4,000 and 2 pM in final volumes of 100 μl. All assays were performed in triplicate, and the background binding was determined by using a 1000-fold molar excess of unlabelled hIL4 in control wells. After incubation for 2 hours at room temperature, the wells were washed, the protein was solubilized in 75 μl of Solubilization buffer [0.1N NaOH/1% sodium dodecylsulfate (SDS)], and the solution was counted in an LKB gamma counter. Concentrations of bound and free hIL4 were determined, and the affinities of the antibodies were determined by Scatchard plot analysis [Berzofsky et al., in *Fundamental Immunology*, 1984, Paul, E. E., Ed., Raven Press, N.Y., N.Y., pp. 595–644].
All five variants of the humanized heavy chain gene were independently co-transfected into COS 7 cells with the pKM20 light chain vector. The serum-free conditioned medium was harvested after 72 hours and concentrated.

human interleukin-4 [7] = biological target: T1, human interleukin-4; assay: apparent Kd, Scatchard analysis; purified antibody captured on anti-rat IgG Fc plates, 125I-hIL-4, room temperature

IC50 (human interleukin-4 [1]): 0.5 nM and 1 nM
IC50, inhibition of human growth hormone expression under the germline epsilon promoter in Jijoye C12 cells with 1 ng/mL hIL-4 (human interleukin-4 [2]): 0.12 nM
concentration for fifty percent inhibition in the germline epsilon reporter assay, Jijoye C12 cells (FIG. 3), against 25D2 and h25D2-9 (human interleukin-4 [3]): 5 fold
fold less effective than antibody 25D2 in competition (human interleukin-4 [4]): 3 fold
concentration for fifty percent inhibition relative to antibody h25D2-9 (human interleukin-4 [5]): 2 fold
Kd (human interleukin-4 [6]): 4 nM
B1: humanized antibody h25D2-1 (antibody, V domains shown)
VH: EVQLLESGGGLVQPGGSLRLSCAASGFSFRSYWMTWVRQAPGKGLEWVASISISGDNTYYPDSVRGRFTISRNDSKNTLYLQMNGLQAEVSAIYYCARDPYYFSGHYFDFWGQGTLVTVSS
VL: DIQMTQSPSSLSVSVGDRVTITCKASQNIYKNLAWYQQKPGLAPKLLIYNAKSLETGVPSRFSGSGSGTDFTFTISSLQPEDIATYYCQQYYSGWTFGQGTKVEVKR

IC50 (human interleukin-4 [1]): 0.5 to 1 nM and 1 nM
IC50, inhibition of human growth hormone expression under the germline epsilon promoter in Jijoye C12 cells with 1 ng/mL hIL-4 (human interleukin-4 [2]): 0.02 to 0.04 nM
Kd (human interleukin-4 [7]): 1 nM
B2: rat monoclonal antibody 25D2 (antibody, V domains shown)
VH: ELQLVESGGGLVQPGRSLKLSCVASGFSFRSYWMTWVRQAPGKGLEWIASISISGDNTYYPDSVRGRFTISRDDAKSILYLQMNSLRSEDTATYYCVRDPYYFSGHYFDFWGQGVMVTVSS
VL: DIQMTQSPSLLSASVGDRVTLNCKASQNIYKNLAWYQQKLGEAPKFLIFNAKSLETGVPSRFSGSGSGTDFTLTISSLQPEDVATYFCQQYYSGWTFGGGTKLELKR

Source: patent US5705154, “Humanized monoclonal antibodies against human interleukin-4” (Schering Corporation, dated 1998)
